Source: US20080213817A1, “Enhancement of Th2-Dependent and Inflammatory Response” (priority 2004, published 2008)

System: WT thymocytes
Assay: Thymocyte proliferation, [3H] thymidine incorporation
Type: cell-based, mice
Details: anti-CD3 or anti-CD3+anti-CD28, 72 hrs, increasing amounts of IL-4
Method: For proliferation assays, purified thymocytes or CD4^+ or CD8^+ splenic T cells (2×10^5 cells/well) were cultured in round bottom 96-well plates (Costar) precoated with anti-CD3 antibody (BD Pharmingen) in the absence or presence of soluble anti-CD28 antibody (BD Pharmingen). After 3 days, cultures were pulsed for 6 hrs with 1 μCi [^3H] thymidine (New England Nuclear) per well and cells were harvested. [^3H] thymidine incorporation was measured by scintillation counting. When indicated, either recombinant IL-4 or neutralizing anti-IL-4 antibody (R&D Systems) were added prior to [^3H] thymidine labeling.
For proliferation assays, purified thymocytes (2×10^5 cells/well) were cultured in round bottom 96-well plates (Costar) precoated with anti-CD3 antibody (BD Pharmingen) in the absence or presence of soluble anti-CD28 antibody (BD Pharmingen). […] [^3H] thymidine incorporation was measured by scintillation counting. […]
The effect of the Mekk1^KD mutation on activation of JNK and other MAPKs in response to TCR and CD28 engagement was investigated. • A. WT and Mekk1^KD thymocytes were incubated with anti-CD3 (10 μg/ml) and anti-CD28 (1 μg/ml). At the indicated times, JNK activity was measured by an immunecomplex kinase assay using GST-c-Jun(1-79) as the substrate. Phosphorylated c-Jun was detected by autoradiography and quantitated using a PhosphorImager. […] Cell proliferation was measured as above. […]

B1: IL-4: recombinant IL-4 (R&D Systems), added exogenously (protein, UniProt P05112 25-153, looked up)
Interleukin-4: HKCDITLQEIIKTLNSLTEQKTLCTELTVTDIFAASKNTTEKETFCRAATVLRQFYSHHEKDTRCLGATAQQFHRHKQLIRFLKRLDRNLWGLAGLNSCPVKEANQSTLENFLERLKTIMREKYSKCSS
proliferative response of WT thymocytes on addition of exogenous IL-4: strongly potentiated
